Reference: the supplement of paper PMC10567573
± gives the standard deviation.

Test: protein stability index of a GFP-peptide fusion (GPS, HEK-293T) (PSI 1-6); higher = more stable
[1] = treatment: DMSO, c terminus: a fixed tail appended
[2] = treatment: MLN4924 1 uM, 8 h, c terminus: a fixed tail appended
[3] = treatment: DMSO, c terminus: native
[4] = treatment: MLN4924 1 uM, 8 h, c terminus: native
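Also: 24-mer peptide tiles fused after GFP, lentivirally expressed, FACS-sorted into six equal bins by GFP/DsRed ratio, decoded by Illumina sequencing, PSI is the read-weighted mean bin number.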

Sequence	protein stability index [1]	protein stability index [2]	protein stability index [3]	protein stability index [4]
SYATEADIISTVEFNHTGELLATG [PPP2R2B]	3.9 ± 0.43	3.94 ± 0.32		
SYKARLPLRLFLIIANTMAFQNDV [SCD]	2.66 ± 0.53	2.5 ± 0.2		
SYLHAKKYLKPSGNMFPTIGDVHL [CARM1]	2.35 ± 0.39	2.64 ± 0.52		
SYLMDHFIPSSHNDRDFLTRIFTE [PPEF2]	2.5 ± 0.19	2.51 ± 0.28		
SYYNSPGLHVQHMGTSHGITRPSP [CCDC6]	3.2 ± 0.29	3.24 ± 0.39		
TAFLPDSKCLVDDGTGRMPTLKKC [GALNT9]	4.17 ± 0.18	4.16 ± 0.31		
TAIRPLKILPWSPEKIGTRFLLYT [PNLIPRP1]	2.23 ± 0.21	2.37 ± 0.24		
TAIRQLTEPSGRVAKKTPTKRSTL [C2CD2L]	4.37 ± 0.15	4.44 ± 0.084		
TAISSFTRHVFTCGRRGIKVWSLT [TLE6]	2.15 ± 0.47	2.16 ± 0.44		
TAKRINRTSLSSGATVRSFSINSR [CDC14A]	3.26 ± 0.41	3.6 ± 0.12		
TAPLTELLHSRNEGVATYAAAVLF [CTNNB1]	2.25 ± 0.46	2.36 ± 0.34		
TCGEGYQFRVVRCWKMLSPGFDSS [ADAMTSL2]	2.77 ± 0.43	2.28 ± 0.38		
TDFYLIFNDVAKFLKQGDSADETT [CMTM3]	2.75 ± 0.31	2.6 ± 0.33		
TDLEMQIEGLKEELAYLRKNHEEE [KRT16]	5.24 ± 0.098	5.45 ± 0.23		
TEQALRLSVEADINGLRRVLDELT [KRT17]	3.07 ± 0.2	3.18 ± 0.25		
TEVPYATFTEHPMKYTSEKFLEIC [TPRG1]	2.64 ± 0.068	2.75 ± 0.12		
TFFGTELAPVRQQELASLLRTYLA [PBXIP1]	2.22 ± 0.29	2.48 ± 0.43		
TGPRLSFPLLPDHATALVEAFRLK [PPEF2]	2.89 ± 0.23	3.07 ± 0.19		
TGYPYRYPALREKSKKYSDVEVPA [ADD1]	3.67 ± 0.081	3.66 ± 0.044		
THQTQPGIRRARDKALSGGKRKET [NET1]	4.79 ± 0.23	5 ± 0.17		
TIEQSLLEVMEEEELANLRASQRE [RSPH3]	4.68 ± 0.24	4.88 ± 0.18		
TILNVRDPTGASIALFTARLHHPH [PTPN9]	2.5 ± 0.21	1.89 ± 0.18		
TKFEVRLLRDPADASEAHESSSRG [CHGB]	4.61 ± 0.26	4.64 ± 0.12		

Sequence	protein stability index [1]	protein stability index [2]	protein stability index [3]	protein stability index [4]
TLARCAKDILGFAVMFFIVFFAYA [PKD2L1]	3.07 ± 0.66	2.68 ± 0.35		
TLARMSRRTRGPVERAAAAAAAAA [C6orf223]	3.02 ± 0.56	3.43 ± 0.91		
TLDSYEDKQKLKRTEIISRSWFPS [YJU2B]	3.14 ± 0.12	3.24 ± 0.29		
TLEEIQKHNHSKSTWLILHHKVYD [CYB5A]	2.37 ± 0.19	2.58 ± 0.24		
TLGEQGLPHQSHRQRSSLAKINIV [SCNN1D]	3.27 ± 0.28	3.33 ± 0.1		
TLLEAEPPHVLISRPSAPFTEASM [ESR2]	3.31 ± 0.26	3.46 ± 0.29		
TLTKQDTMLKAMFSGRMEVLTDSE [KCTD10]	4.09 ± 0.26	4.32 ± 0.2		
TMGMGMPNIAMTSGTVQPKQDAFA [CLINT1]	3.9 ± 0.17	3.98 ± 0.21		
TMIQQQNMQQPMNVMTQSFGAVNL [CLINT1]	2.69 ± 0.39	2.94 ± 0.39		
TNCWLIRELNLPFGGMKSSGIGRE [ALDH8A1]	2.31 ± 0.41	2.29 ± 0.33		
TNMARIREIMEKFGKQPVSLPARR [CPXM2]	2.72 ± 0.1	3.06 ± 0.31		
TPEAKDLINKMLTINPSKRITAAE [CAMK2A]	4.28 ± 0.17	4.42 ± 0.1		
TPIQLQELLALETALGGQCVDRQE [TCAP]	4.52 ± 0.11	4.47 ± 0.26		
TPKLDCFLSGMEAAPRTLAAHPPL [TBX6]	3.18 ± 0.17	3.48 ± 0.2		
TPMLNPLIYTLKNAEMKSAMRKLW [OR4A15]	2.11 ± 0.32	2.04 ± 0.16		
TPVSNSLLPEKAFSDIPSPYLRGT [GFOD1]	4.03 ± 0.28	3.98 ± 0.1		
TQAHIQECKHPSVFQHGDNSFRLL [MCOLN1]	2.78 ± 0.11	2.92 ± 0.16		
TQELVAIKIIKNKKAFLNQAQIEL [DYRK1B]	2.18 ± 0.27	2.17 ± 0.3		
TQIEDATEKLKANAESSKTWLKGK [TRIM14]	4.95 ± 0.37	5 ± 0.18		
TREKAKFSDGEKCRREAFRRLGNG [PHTF1]	3.65 ± 0.17	3.62 ± 0.39		
TRKHYQVTGYGINGTGDSNDFWRI [POMT2]	2.34 ± 0.25	2.32 ± 0.28		
TRRSTAEAFQIVLSHLLGDAGSPY [SPNS1]	2.52 ± 0.58	2.56 ± 0.46		
TSDAAFLTQWKDSLVSLVLYNMDL [ZER1]	2.71 ± 0.52	2.56 ± 0.44		

Sequence	protein stability index [1]	protein stability index [2]	protein stability index [3]	protein stability index [4]
TSSKPTALPSASSAYFPGQLPNS [SASS6]			4.42 ± 0.41	4.4 ± 0.26
TSSKVNATVPSNMMSVNGQAKTHT [ACBD3]	4.38 ± 0.13	4.45 ± 0.082		
TSSSLGDKSEYLEMEEGVKESLCA [KCNA4]	5.1 ± 0.14	4.77 ± 0.41		
TSSSSSSSRQTRPILKEQSSSSFS [KRT16]	4.66 ± 0.14	4.61 ± 0.11		
TTADLDRKLSFSHSDHSSEMSLPE [SPATS1]	5.08 ± 0.19	4.82 ± 0.27		
TVAGKHQDLKYISPEIMASVLNGK [CDC25A]	3.17 ± 0.2	3.3 ± 0.32		
TWASPAEVVDLTLDEDSRRKYLL [C18orf25]			4.49 ± 0.44	4.68 ± 0.53
TYAMGHLIQRKKVHVFGDELSLVT [TNFSF13B]	2.32 ± 0.3	2.42 ± 0.21		
TYLENKGHRYPCFFNTLHVGGTIR [POP5]	2.23 ± 0.14	2.19 ± 0.052		
VAETSGETIQGFWLLTKIDHWNNE [TPRG1]	2.11 ± 0.36	2.31 ± 0.26		
VALPTEAEFQLVRDVVLCSLLNFL [TENT5C]	2.14 ± 0.28	2.13 ± 0.37		
VCQEVLERSRDVVDEVSVSLRLWD [RHOBTB1]	3.1 ± 0.48	3.36 ± 0.46		
VDRLPGLQGALDLLAVLCVDGSGR [ZSWIM9]	2.01 ± 0.34	2.27 ± 0.24		
VDYKQSVLNVAGEAGGKQKAVEEE [SLC6A17]	5.52 ± 0.44	5.68 ± 0.3		
VEVDESEPYPSQLLKPIPEYSPEE [TRAF3IP2]	5.48 ± 0.44	5.46 ± 0.35		
VFCDMETDGGGWLVFQRRMDGQTD [TNXB]	2.9 ± 0.27	2.98 ± 0.096		
VFDAMFNGGMATTSAEIELPDVEP [BTBD1]	4.68 ± 0.28	4.77 ± 0.24		
VFGRGDNISDVSKFLEDDKWMEE [LUC7L3]			2.4 ± 0.54	3.38 ± 0.96
VFISSYMVLAPVFGYLGDRYNRKY [SPNS1]	3.16 ± 0.49	2.87 ± 0.62		
VGESVEEAFYYIHNLVVACEIQVR [ADD1]	2.79 ± 0.37	2.91 ± 0.72		
VGLIQAAQQLLCDEQAPQRQRLLA [DFFB]	3.28 ± 0.12	3.19 ± 0.12		
VGSVHVDSGASAITRESHTHRDRP [CSNK1G1]	4.85 ± 0.25	4.66 ± 0.32		
VHRLDLILCNKTAYQEVFKPENIS [SMG5]	2.12 ± 0.48	2.15 ± 0.4		

Sequence	protein stability index [1]	protein stability index [2]	protein stability index [3]	protein stability index [4]
VHRQLGEANEEFALRVQQLVAKEL [AUP1]	3.79 ± 0.076	3.88 ± 0.1		
VIAKPSELTSVTAWMLCKLLDKAG [ALDH8A1]	2.3 ± 0.2	2.3 ± 0.23		
VKRKKNVLRLCCKKLKIFAMPMQD [PRAME]	2.29 ± 0.37	2.2 ± 0.15		
VLDLQRIFALYSSLKFKSRVPQTW [PLD5]	3.19 ± 0.94	2.09 ± 0.26		
VLKTSRSTPLSPAYISLVEEEDQH [KLHL13]	4.77 ± 0.13	4.91 ± 0.17		
VLKVLSVCSSNKPAIVEAGGMQAL [CTNNB1]	2.46 ± 0.24	2.46 ± 0.098		
VLMVGPNFRVGKKIGCGNFGELRL [CSNK1G1]	2.42 ± 0.053	2.69 ± 0.61		
VLRCQLGDRLNVEVDAAPPVDLNK [KRT36]	4.06 ± 0.11	4.14 ± 0.25		
VLSEGSPLTEQEESSPSHDRSRTV [SRPK2]	5.35 ± 0.33	5.32 ± 0.25		
VMEIQKQIEKKEKKLHKIQNKAQR [TAF7L]	4.13 ± 0.088	4.36 ± 0.21		
VNARQKQGIYEEYEDIRRENPVGT [PTPN9]	4.83 ± 0.37	4.96 ± 0.29		
VNPQDGTNTLTRIAENGVSERDSE [EHMT1]	5.56 ± 0.22	5.51 ± 0.11		
VNSTLKELRRLFLVQDLVDSLKFA [RTN1]	2.44 ± 0.27	2.4 ± 0.23		
VPIKPPCIPNGKENFSGGTSLWQN [CAMK2D]	2.65 ± 0.12	2.71 ± 0.57		
VPQLVTGRCATRAFHRKSHSLDLN [RNF180]	2.35 ± 0.2	2.6 ± 0.41		
VQLRFCGRQPCGRFLRAYREGALR [TRADD]	2.61 ± 0.53	2.29 ± 0.65		
VQRHLYLQDVIMQVADVPEKPRVP [ZNF511]	2.8 ± 0.2	2.9 ± 0.29		
VQVLTMGNDTSPSEGTNLNAPNSL [HNF4A]	3.97 ± 0.17	4.02 ± 0.18		
VRAKGSQSGRHLQTHSNTIVVSLQ [STX5]	2.48 ± 0.24	2.64 ± 0.075		
VRSRLEEAGIKVHDVRLNGSAAGH [TENT5C]	2.85 ± 0.43	3.21 ± 0.64		
